# B1: rBGLa (Limosilactobacillus antri DSM 16041) (protein)
# chain: MVKIDLQFVQGLTLEERAALVSGKDFWFTAKVPGVDRMMMSDGPSGLRKQDIDVAPTDVNNSVDAVCFPSSALTASSFDDQLLFKLGHHLGVAASAEKLGVLLGPGVNIKRSPLAGRNFEYFSEDPLLAGRMGTAYVKGVQEEGVGVSVKHFAANNRENQRFTSSSNIDERALREIYLAQFERIVKEAQPATLMCSYNRLNGTLNSQNQRLLTEILRNEWGFQGLVMSDWGAVADHVAAIKAGLDLEMPGKDQASVDEIVQAVKEGRLQESTLNRSALRVLQMVEKWGKDVSRTESYDKEEQHEFARQVADDSIVLLKNDNQELPLHTGGSLAVIGELAAKPRFEGGGSSHVNAHHLVTPLAAAPTNAKYAVGYSLTETAPNEELTKEAVQLAKQSDQVVFFAGFPERMETEGFDKDSIALPANQNALLREVLKVNPHVTVVLQNGSVVEMPWADGVPAIVETYLAGEAVGEATWDILTGKVNPSGKLSESFPLRLQDNPTYGTFARDHDEEDYHEGIFVGYRYYDLHEMPVRFPFGHGLSYTDFTYSDLTVSEEDNDVKVRFTVTNSGQVAGKEVAQVYVANHVSRVEMPVKELRDFTKLALAPGESKTVTLTLPRRAFSYYNVAQEQWEADNGEYEIMVGSSSRDIRLRTTFTLTIGVNPVGEITGDTYIGDIWNDQDPKVQAALKSSGLYEVLQPMMADKDWVAISANMPLRSLAATGIQEEVRDAFLRALK
# Substrate: O=[N+]([O-])c1ccc(O[C@@H]2O[C@H](CO)[C@@H](O)[C@H](O)[C@H]2O)cc1
# Assay: purified protein
# Settings: 25 mM sodium phosphate pH 6.0, 45 °C, 1 μg/mL enzyme, 0.1-5.0 mM substrate, no inhibitor
protein,measurement,value
B1,Km,1840 ± 70 µM
same,kcat,407 s⁻¹
same,kcat/Km,221000 M⁻¹ s⁻¹

# Source: article PMC6327262
